Here are results for 2 molecules from patent US12251377B2, “Anticoagulant compositions and uses thereof” (University of Rochester, priority 2019, dated 2025).

In data set [1] the test system is coagulation of human blood. Description: Cardiopulmonary bypass circuit simulation (arterio-venous loop). In kind it is biochemical. Particulars: whole duration of the bypass circuit experiment, 37° C. As to the method: (§1) In the examples below, studies were carried out to examine effects of dabigatran on coagulation of human blood. The studies were approved by the Institutional Review Board (University of Rochester RSRB, Rochester, NY) and informed consent was obtained from all subjects. Six healthy non-pregnant donors between 18-70 years old were recruited for the study. Subjects were excluded from the recent infections, disorders of immune system, hematological disorders including prior history of clotting issues, malignancies. Current medications and herbal supplements were recorded. Standard phlebotomy procedures performed by trained personal were used to collect no more than 250 ml of whole blood in two months. The collected blood was anticoagulated with 0.109 M Na citrate and tested within four hours. Dabigatran was purchased from CLEARSYNTH (Ontario, Canada). The study was initiated in three steps: Effect of high-dose Dabigatran on coagulation of human blood in-vitro; Evaluation of the anticoagulant effect of Dabigatran in the Chandler Loop System; and Anticoagulation effect of Dabigatran in the Cardiopulmonary bypass circuit simulation. […]

The conditions of data set [2]: cited from earlier work.
Data set [3] concerns coagulation of human blood. Kind of data set: Thromboelastography, TEG 5000 rapid TEG test, clotting/reactive time (R). The format is biochemical. Particulars: human blood in vitro. How it is done: In the examples below, studies were carried out to examine effects of dabigatran on coagulation of human blood. The studies were approved by the Institutional Review Board (University of Rochester RSRB, Rochester, NY) and informed consent was obtained from all subjects. Six healthy non-pregnant donors between 18-70 years old were recruited for the study. Subjects were excluded from the recent infections, disorders of immune system, hematological disorders including prior history of clotting issues, malignancies. Current medications and herbal supplements were recorded. Standard phlebotomy procedures performed by trained personal were used to collect no more than 250 ml of whole blood in two months. […]
Methods: Dabigatran (CLEARSYNTH, Catalog No. CS-O-03403; CAS number 211914-51-1) was initially dissolved in 0.1M HCL to 16.6 mg/ml, followed by diluting to 240 μg/ml, using 50% DMSO. […] TEG 5000 (rapid TEG test) and ROTEM (ex-tem test) were used to measure anticoagulation and the corresponding reactive time (R) and coagulation time (CT) were recorded.
(§2) Methods: Dabigatran was initially dissolved in 0.1 M HCL, followed by diluting 1:1 with DMSO/H2O to prepare four stock solutions: […]. […] Blood clotting was monitored for 120 minutes. […]
Each of the dabibatran-containing blood sample described above was examined for clotting time R measured by TEG in the manner described above.

For data set [4], the system named is coagulation of human blood. Description: Chandler Loop System, clot formation in circulating blood. The format is biochemical. The settings on record: Idarucizumab added after 2 hours of circulation; immediate clotting of the blood in the loop. As to the method:
as §1, §2

As to `[H]/N=C(/N)c1ccc(NCc2nc3cc(C(=O)N(CCC(=O)O)c4ccccn4)ccc3n2C)cc1` [Dabigatran], the “plasma levels of Dabigatran during the experimental procedure (Mass Spectrometry)” value in data set [1] was “remain stable”. In addition, the “normal concentrations found in patients” value in data set [2] is 180 ng/mL.

B1: Idarucizumab: anti-dabigatran antibody, reversal agent (antibody, chains of the INN, looked up, V domains shown)
VH: QVQLQESGPGLVKPSETLSLTCTVSGFSLTSYIVDWIRQPPGKGLEWIGVIWAGGSTGYNSALRSRVSITKDTSKNQFSLKLSSVTAADTAVYYCASAAYYSYYNYDGFAYWGQGTLVTVSS
VL: DVVMTQSPLSLPVTLGQPASISCKSSQSLLYTDGKTYLYWFLQRPGQSPRRLIYLVSKLDSGVPDRFSGSGSGTDFTLKISRVEAEDVGVYYCLQSTHFPHTFGGGTKVEIK
modifications: Fab
notes: anti-dabigatran antibody, reversal agent
For the molecule B1, the “reversal of the anticoagulation effect of Dabigatran” value in data set [3] (125 μg/ml Idarucizumab) is given as “successfully reversed”. The “Idarucizumab concentration required to reverse the highest concentrations of Dabigatran” value in data set [3] (highest Dabigatran concentrations) is on record as 2-4 times normal plasma concentrations. Further, the “reversal of the anticoagulation action of Dabigatran in the Chandler loop” value in data set [4] is “effectively reversed”.
